Data: patent US20150045540A1 (published 2015)

B1: HC 9/SLC 15 (antibody)
chain 1: GQGTLVTVSSASTKGPSVFQPVLHQPPAMSSALGTTIRLTCTLRNDHDIGVYSVYWYQQRPGHPPRFLLRYFSQSDKSQGPQVPPRFSGSKDVARNRGYLSISELQPEDEAMYYCAMGARSRCWPRGFQSKHNSVTHVFGSGTQLTVLSQPKATPSVTLFPPSSEELQANKATLVCLMNDFYPGILTVTWKADGTPITQGVEMTTPSKQSNNKYAASSYLSLTPEQWRSRRSYSCQVMHEGSTVEKTVAPAECS
chain 2: MSWAPVLLMLFVYCTGCGPQPVLHQPPAMSSALGTTIRLTCTLRNDHDIGVYSVYWYQQRPGHPPRFLLRYFSQSDKSQGPQVPPRFSGSKDVARNRGYLSISVTHVFGSGTQLTVLSQPKATPSVTGGGGSQVQLVQ
B2: HC 6/SLC 2 (antibody)
chain 1: GQGTLVTVSSASTKGPQPVLHQPPAMSSALGTTIRLTCTLRNDHDIGVYSVYWYQQRPGHPPRFLLRYFSQSDKSQGPQVPPRFSGSKDVARNRGYLSISELQPEDEAMYYCAMGARSRCWPRGFQSKHNSVTHVFGSGTQLTVLSQPKATPSVTLFPPSSEELQANKATLVCLMNDFYPGILTVTWKADGTPITQGVEMTTPSKQSNNKYAASSYLSLTPEQWRSRRSYSCQVMHEGSTVEKTVAPAECS
chain 2: MSWAPVLLMLFVYCTGCGPQPVLHQPPAMSSALGTTIRLTCTLRNDHDIGVYSVYWYQQRPGHPPRFLLRYFSQSDKSQGPQVPPRFSGSKDVARNRGYLSISVTHVFGSGTQLTVLSQQVQLVQ
B3: HC 9/SLC 2 (antibody)
chain 1: B1 chain 1
chain 2: B2 chain 2
B4: HC 6/SLC 9 (antibody)
chain 1: B2 chain 1
chain 2: MSWAPVLLMLFVYCTGCGPQPVLHQPPAMSSALGTTIRLTCTLRNDHDIGVYSVYWYQQRPGHPPRFLLRYFSQSDKSQGPQVPPRFSGSKDVARNRGYLSISVTHVFGSGTQLTVLSQPKATPSVQVQLVQ
B5: HC 4/SLC 5 (antibody)
chain 1: GQGTLVTVSSASTKQPVLHQPPAMSSALGTTIRLTCTLRNDHDIGVYSVYWYQQRPGHPPRFLLRYFSQSDKSQGPQVPPRFSGSKDVARNRGYLSISELQPEDEAMYYCAMGARSRCWPRGFQSKHNSVTHVFGSGTQLTVLSQPKATPSVTLFPPSSEELQANKATLVCLMNDFYPGILTVTWKADGTPITQGVEMTTPSKQSNNKYAASSYLSLTPEQWRSRRSYSCQVMHEGSTVEKTVAPAECS
chain 2: MSWAPVLLMLFVYCTGCGPQPVLHQPPAMSSALGTTIRLTCTLRNDHDIGVYSVYWYQQRPGHPPRFLLRYFSQSDKSQGPQVPPRFSGSKDVARNRGYLSISVTHVFGSGTQLTVLSQPKAQVQLVQ
B6: HC 7/SLC 8 (antibody)
chain 1: GQGTLVTVSSASTKGPSQPVLHQPPAMSSALGTTIRLTCTLRNDHDIGVYSVYWYQQRPGHPPRFLLRYFSQSDKSQGPQVPPRFSGSKDVARNRGYLSISELQPEDEAMYYCAMGARSRCWPRGFQSKHNSVTHVFGSGTQLTVLSQPKATPSVTLFPPSSEELQANKATLVCLMNDFYPGILTVTWKADGTPITQGVEMTTPSKQSNNKYAASSYLSLTPEQWRSRRSYSCQVMHEGSTVEKTVAPAECS
chain 2: MSWAPVLLMLFVYCTGCGPQPVLHQPPAMSSALGTTIRLTCTLRNDHDIGVYSVYWYQQRPGHPPRFLLRYFSQSDKSQGPQVPPRFSGSKDVARNRGYLSISVTHVFGSGTQLTVLSQPKATPSQVQLVQ
B7: HC 7/SLC 7 (antibody)
chain 1: B6 chain 1
chain 2: MSWAPVLLMLFVYCTGCGPQPVLHQPPAMSSALGTTIRLTCTLRNDHDIGVYSVYWYQQRPGHPPRFLLRYFSQSDKSQGPQVPPRFSGSKDVARNRGYLSISVTHVFGSGTQLTVLSQPKATPQVQLVQ
B8: HC 5/SLC 3 (antibody)
chain 1: GQGTLVTVSSASTKGQPVLHQPPAMSSALGTTIRLTCTLRNDHDIGVYSVYWYQQRPGHPPRFLLRYFSQSDKSQGPQVPPRFSGSKDVARNRGYLSISELQPEDEAMYYCAMGARSRCWPRGFQSKHNSVTHVFGSGTQLTVLSQPKATPSVTLFPPSSEELQANKATLVCLMNDFYPGILTVTWKADGTPITQGVEMTTPSKQSNNKYAASSYLSLTPEQWRSRRSYSCQVMHEGSTVEKTVAPAECS
chain 2: MSWAPVLLMLFVYCTGCGPQPVLHQPPAMSSALGTTIRLTCTLRNDHDIGVYSVYWYQQRPGHPPRFLLRYFSQSDKSQGPQVPPRFSGSKDVARNRGYLSISVTHVFGSGTQLTVLSQPQVQLVQ
B9: HC 5/SLC 4 (antibody)
chain 1: B8 chain 1
chain 2: MSWAPVLLMLFVYCTGCGPQPVLHQPPAMSSALGTTIRLTCTLRNDHDIGVYSVYWYQQRPGHPPRFLLRYFSQSDKSQGPQVPPRFSGSKDVARNRGYLSISVTHVFGSGTQLTVLSQPKQVQLVQ
B10: HC 10/SLC 3 (antibody)
chain 1: GQGTLVTVSSASTKGPSVFPQPVLHQPPAMSSALGTTIRLTCTLRNDHDIGVYSVYWYQQRPGHPPRFLLRYFSQSDKSQGPQVPPRFSGSKDVARNRGYLSISELQPEDEAMYYCAMGARSRCWPRGFQSKHNSVTHVFGSGTQLTVLSQPKATPSVTLFPPSSEELQANKATLVCLMNDFYPGILTVTWKADGTPITQGVEMTTPSKQSNNKYAASSYLSLTPEQWRSRRSYSCQVMHEGSTVEKTVAPAECS
chain 2: B8 chain 2

Target: T1, Placenta Growth Factor (PlGF), human (human, UniProt P49763 21-149)
T1 chain: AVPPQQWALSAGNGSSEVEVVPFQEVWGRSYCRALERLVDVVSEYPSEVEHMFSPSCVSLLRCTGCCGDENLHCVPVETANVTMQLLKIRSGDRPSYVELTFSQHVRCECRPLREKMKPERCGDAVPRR
Experiment: ELISA

Row | Binder | EC50
1 | B1 | 0.047 nM
2 | B2 | 0.229 nM
3 | B3 | 0.211 nM
4 | B4 | 0.053 nM
5 | B5 | 0.282 nM
6 | B6 | 0.095 nM
7 | B7 | 0.106 nM
8 | B8 | 0.181 nM
9 | B9 | 0.207 nM
10 | B10 | 0.121 nM

Each binder was assayed against Hepatocyte Growth Factor (HGF), human (human, UniProt P14210 32-728) (assay: ELISA).
Sequence of Hepatocyte Growth Factor (HGF), human (P14210 32-728): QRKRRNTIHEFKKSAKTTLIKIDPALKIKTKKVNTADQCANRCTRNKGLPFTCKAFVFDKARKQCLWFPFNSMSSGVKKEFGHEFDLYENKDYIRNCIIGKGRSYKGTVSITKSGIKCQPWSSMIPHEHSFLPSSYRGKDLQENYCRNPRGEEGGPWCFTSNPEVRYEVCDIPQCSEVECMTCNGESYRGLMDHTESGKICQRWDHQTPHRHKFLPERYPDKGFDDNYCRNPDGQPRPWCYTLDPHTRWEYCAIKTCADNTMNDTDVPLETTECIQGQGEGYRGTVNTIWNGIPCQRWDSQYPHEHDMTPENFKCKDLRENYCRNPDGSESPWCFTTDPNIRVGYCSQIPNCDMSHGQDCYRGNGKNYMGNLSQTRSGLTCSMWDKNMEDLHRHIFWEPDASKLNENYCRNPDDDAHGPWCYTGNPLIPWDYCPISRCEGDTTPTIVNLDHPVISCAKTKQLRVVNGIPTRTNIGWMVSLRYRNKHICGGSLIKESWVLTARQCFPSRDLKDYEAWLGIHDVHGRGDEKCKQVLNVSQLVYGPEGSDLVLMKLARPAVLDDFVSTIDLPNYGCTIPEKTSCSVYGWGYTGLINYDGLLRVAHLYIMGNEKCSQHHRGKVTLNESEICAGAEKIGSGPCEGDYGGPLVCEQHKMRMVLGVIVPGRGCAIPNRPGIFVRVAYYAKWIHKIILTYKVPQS

Row | Binder | EC50
11 | B1 | 0.049 nM
12 | B2 | 0.06 nM
13 | B3 | 0.062 nM
14 | B4 | 0.047 nM
15 | B5 | 0.059 nM
16 | B6 | 0.056 nM
17 | B7 | 0.056 nM
18 | B8 | 0.064 nM
19 | B9 | 0.065 nM
20 | B10 | 0.074 nM
